Measured values: patent US20070299011A1 (TSINGHUA UNIVERSITY, published 2007)

Molecular target: T1, myc-tagged APP-AICD(C99) (UniProt P05067 672-770)
T1 construct: domain: APP-AICD(C99); also called APP-AID(C99); not shown: myc tag
Test: co-IP from 293T lysate: anti-myc IP, anti-HA Western blot

B1: HA-168 deletion mutant 118-264AA (other)
chain: GHPPTALESVMLGVGSRSVAGVCMSPITVIKTRYESGKYGYESIYAALRSIYHSEGHRGLFSGLTATLLRDAPFSGIYLMFYNQTKNIVPHDQVDATLIPITNFSCGIFAGILASLVTQPAGVIKTHMQLYPLKFQWIGQAVTLIFK
notes: not shown: HA tag
B1: binds.
